In paper doi:10.64898/2025.12.08.692793 (bioRxiv, 2025):

Target: metabotropic glutamate receptor 2 (mGlu2) (human, UniProt Q14416 19-872)
Assay: cryo-EM structure

metabotropic glutamate receptor 2 (mGlu2), sequence (Q14416 19-872): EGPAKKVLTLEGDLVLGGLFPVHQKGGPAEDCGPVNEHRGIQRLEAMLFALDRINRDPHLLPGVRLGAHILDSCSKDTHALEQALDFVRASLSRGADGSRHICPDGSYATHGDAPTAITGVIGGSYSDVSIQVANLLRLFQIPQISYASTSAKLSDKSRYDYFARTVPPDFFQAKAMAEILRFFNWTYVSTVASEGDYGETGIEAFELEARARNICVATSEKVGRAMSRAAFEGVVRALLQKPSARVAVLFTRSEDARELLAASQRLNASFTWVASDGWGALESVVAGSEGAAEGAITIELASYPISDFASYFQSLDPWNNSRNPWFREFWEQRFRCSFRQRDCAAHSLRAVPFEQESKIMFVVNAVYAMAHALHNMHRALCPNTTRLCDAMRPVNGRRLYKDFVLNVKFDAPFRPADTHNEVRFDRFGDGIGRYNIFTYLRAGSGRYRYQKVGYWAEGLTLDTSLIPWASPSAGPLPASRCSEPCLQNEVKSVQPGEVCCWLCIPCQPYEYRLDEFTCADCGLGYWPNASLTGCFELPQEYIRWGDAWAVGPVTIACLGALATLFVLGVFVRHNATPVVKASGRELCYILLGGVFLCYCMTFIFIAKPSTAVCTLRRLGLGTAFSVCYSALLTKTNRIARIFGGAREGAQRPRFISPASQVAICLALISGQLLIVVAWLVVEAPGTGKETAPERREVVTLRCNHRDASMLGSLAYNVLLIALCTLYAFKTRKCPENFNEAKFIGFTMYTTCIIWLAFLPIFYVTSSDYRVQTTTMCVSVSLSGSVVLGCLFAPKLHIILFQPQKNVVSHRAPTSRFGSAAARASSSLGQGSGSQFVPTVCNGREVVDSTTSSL

LPQEYIRW [FTM peptide (Force Transduction Motif, mGlu2 residues 556-563)]
binding result: binds
